Source: article PMC13083859

Molecular target: human muscarinic M3 receptor with C-terminal mCitrine (M3-mCit), wild type (human) (UniProt P20309)
Test: FRET or BRET; single-cell FRET between receptor-mCitrine and mTurq-Gγ2 of the co-expressed heterotrimer (Gαo or Gαq, Gβ1, Gγ2) in HEK293T cells permeabilized with 0.05% saponin for 2 min (GTP depletion), PTX-A co-expressed; room temperature; internal buffer pH 7.35; complex induced by 10 µM acetylcholine, its stability after wash-out quantified as area under the curve (AUC); complete dissociation by 1 µM GTPγS

Sequence of UniProt P20309 (P20309 whole entry): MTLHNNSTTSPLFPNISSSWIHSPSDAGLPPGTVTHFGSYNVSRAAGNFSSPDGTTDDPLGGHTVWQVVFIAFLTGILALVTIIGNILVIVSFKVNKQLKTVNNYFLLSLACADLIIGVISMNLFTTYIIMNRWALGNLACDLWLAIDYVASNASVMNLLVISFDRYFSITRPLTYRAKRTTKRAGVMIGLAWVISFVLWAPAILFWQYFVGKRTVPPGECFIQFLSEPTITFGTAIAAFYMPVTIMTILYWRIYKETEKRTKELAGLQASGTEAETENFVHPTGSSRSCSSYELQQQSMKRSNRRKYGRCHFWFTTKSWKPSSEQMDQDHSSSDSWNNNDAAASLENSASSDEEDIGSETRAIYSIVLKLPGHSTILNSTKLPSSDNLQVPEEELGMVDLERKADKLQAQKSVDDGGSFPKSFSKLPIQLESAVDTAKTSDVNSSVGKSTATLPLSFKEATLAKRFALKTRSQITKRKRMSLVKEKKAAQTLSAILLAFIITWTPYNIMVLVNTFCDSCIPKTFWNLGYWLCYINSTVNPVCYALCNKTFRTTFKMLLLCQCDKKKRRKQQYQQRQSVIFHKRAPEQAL

Row | Substance | AUC (area under the FRET curve after agonist wash-out) [a.u.]
1 | Gq heterotrimer: Gαq, Gβ1-wt and mTurq-Gγ2 (from UniProt P50148 1-359; P62873 1-340; P59768 1-71) (complex; other documents disagree on this pair) | 106
2 | Go heterotrimer: PTX-insensitive Gαo, Gβ1-wt and mTurq-Gγ2 (from UniProt P09471 1-354; P62873 1-340; P59768 1-71) (complex) | 30
